Source: paper PMC6581901, “The SRP signal sequence of KdpD” (Scientific Reports, 2019)
Numbering of substitutions follows the chain as printed.

Experiments:
[1] = target: T1, SRP reconstituted from wild-type Ffh (406C) and 4.5S RNA (E. coli, UniProt P0AGD7 1-453); assay: cross-linking; disulfide cross-linking with 1 mM copper phenanthroline; 2 µM reconstituted SRP (Ffh + 3 µM 4.5S RNA) with 20 µM peptide, 1 h on ice, 50 mM Tris pH 7.4, 150 mM NaCl, 10 mM MgCl2; TCA precipitation, SDS-PAGE with or without DTT; conditions: both partners purified
T1 construct: Ffh (fifty-four-homolog), 48-kDa protein component of E. coli SRP, expressed from pMS-Ffh-C-Strep; Ribonucleoprotein: Ffh with a 1.5-fold molar excess of 4.5S RNA; the RNA is not written as a chain; also called wildtype SRP; source: E. coli BL21 (DE3), purified (Strep-Tactin, Superdex 75); reconstituted with in vitro transcribed 4.5S RNA
T1 sequence (looked up): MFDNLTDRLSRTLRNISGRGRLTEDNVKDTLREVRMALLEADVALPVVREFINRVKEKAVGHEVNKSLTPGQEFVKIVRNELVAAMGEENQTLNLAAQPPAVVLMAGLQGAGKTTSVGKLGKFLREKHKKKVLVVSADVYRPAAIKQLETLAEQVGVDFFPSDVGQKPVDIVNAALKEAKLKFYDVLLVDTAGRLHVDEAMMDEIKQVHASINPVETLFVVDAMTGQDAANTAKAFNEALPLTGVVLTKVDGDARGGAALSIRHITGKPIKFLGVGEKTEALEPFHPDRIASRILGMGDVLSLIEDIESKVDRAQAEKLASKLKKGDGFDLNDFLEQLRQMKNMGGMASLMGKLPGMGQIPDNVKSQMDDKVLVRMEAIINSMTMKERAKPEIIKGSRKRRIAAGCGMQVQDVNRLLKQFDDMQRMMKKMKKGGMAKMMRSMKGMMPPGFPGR

[2] = target: T2, SRP reconstituted from Ffh 406S/423C and 4.5S RNA (E. coli, UniProt P0AGD7 1-453, M423C | C406S); assay: as above; conditions: both partners purified
T2 construct: Ffh of E. coli SRP with a cysteine at 423 (M domain pocket) and a serine at 406, from pMS-Ffh-M423C-C-Strep; Ribonucleoprotein with 4.5S RNA; also called SRP 423; Ffh M423C; source: E. coli BL21 (DE3), purified (Strep-Tactin, Superdex 75); reconstituted with in vitro transcribed 4.5S RNA
T2 sequence (looked up): T1 sequence (looked up) with C406S, M423C

B1: KdpD peptide (residues 22-48), in vitro synthesized (peptide)
peptide: Ac-RGKLKVFFGACAGVGKTWAMLAEAQRL-NH2
notes: also called KdpD22-48; KdpD22–48 peptide; source: synthetic peptide (GENOSPHERE Biotechnologies, purity >95%)
B1: binds [1]; binds [2].
